Results from US20250340652A1 (CHENGDU DI AO PHARMACEUTICAL GROUP, published 2025).

B1: B67 (antibody, human IgG4, kappa, V domains shown)
VH: QITLKESGPGLVKPSGTLSLTCAVSGGSISSSNWWSWVRQPPGKGLEWIGEIYHSGSTNYNPSLKSRVTISVDKSKNQFSLKLSSVTAADTAVYYCARDDGWRYGSVYYYYMDVWGKGTTVTVSS
VL: DIQLTQSPSSLSASVGDRVTITCRASQSIDDHLNWYQQKPGKVPKLLISSASTLQSGAPSRFSGSGYGTDFTLTISSLQVEDFATYYCQQSYSPPQTFGQGTKVEIKR
notes: also called P59388
B2: A8 (antibody, human IgG4, kappa, V domains shown)
VH: QVQLVQSGAEVKKPGSSVKVSCKASGGTFSSYAISWVRQAPGQGLEWMGGIIPIFGTANYAQKFQGRVTMTRDTSTSTVYMELSSLRSEDTAVYYCARDSDFWSGYSSMDVWGQGTTVTVSS
VL: DIVMTQSPLSLPVTLGQPASISCRSSQSLVHSDGNTYLNWFQQRPGQSPRRLIYKVSNRDSGVPDRFSGSGSGTDFTLKISRVEAEDVGVYYCMQGTQWPDTFGQGTKLEIKR
notes: also called P59367
B3: A26 (antibody, human IgG4, kappa, V domains shown)
VH: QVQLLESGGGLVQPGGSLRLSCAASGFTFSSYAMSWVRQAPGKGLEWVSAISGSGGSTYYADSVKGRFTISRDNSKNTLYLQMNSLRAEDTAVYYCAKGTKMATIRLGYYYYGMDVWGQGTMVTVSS
VL: DIVMTQSPLSLPVTPGEPASISCRSSQSLLHSNGRNYLDWYLQKPGQSPQLLIYLGSNRASGVSDRFSASGSGTDFTLQISRVEAEDVGIYYCMQALQTPWTFGQGTKVEVKR
notes: also called P59372
B4: A382 (antibody, human IgG4, kappa, V domains shown)
VH: QVQLVQSGAEVKKPGASVKVSCKASGYTFTSYAMHWVRQAPGQRLEWMGWINAGNGNTKYSQKFQGRVTITRDTSASTAYMELSSLRSEDTAVYYCATSKSVWNFDYWGQGTLVTVSS
VL: EIVLTQSPATLSLSPGERATLSCRASQGISSYLAWYQQKPGQAPRLLIYDASNRATGIPARFSGSGSGTDFTLTISNLEPEDFAVYYCQQRKNWPLTFGGGSKVEIKR
notes: also called P59381
B5: B114 (antibody, human IgG4, kappa, V domains shown)
VH: EVQLLESGGGLVQPGGSLKLSCAASGFTFSGYAMHWVRQAPGKGLEWVAVISYDGSNKYYADSVKGRFTISRDNSKNTLYLQMNSLRAEDTAVYYCARGRGRGVFDYWGQGTLVTVSS
VL: EIVLTQSPGTLSLSPGERATLSCRASQSVSKYLAWYQQKPGQAPRLLIYDVSNRATGIPARFSGSGSGTDFTLTISSLEPEDFAVYYCQQRRSWPLTFGGGTKVEIRR
notes: also called P59393
B6: B123 (antibody, human IgG4, kappa, V domains shown)
VH: QVQLQQWGAGLLKPSQTLSLTCTVSGGSISSGGYYWSWIRQHPGKGLEWIGYIYYSGSTYYNPSLKSRVTISVDTSKNQFSLKLSSVTAADTAVYYCARWDRVREGGRFSNAFDIWGQGTMVTVSS
VL: NIQLTQSPSSLSASVGDRVTITCRASQGISTYLAWYQQKPGLAPKLLIYGASTLQSGVPSKFSGFGSGRDFTLTISSLQPEDIATYYCQQLNTYPPTFGQGTKLEIKR
notes: also called P59395
B7: A378 (antibody, human IgG4, kappa, V domains shown)
VH: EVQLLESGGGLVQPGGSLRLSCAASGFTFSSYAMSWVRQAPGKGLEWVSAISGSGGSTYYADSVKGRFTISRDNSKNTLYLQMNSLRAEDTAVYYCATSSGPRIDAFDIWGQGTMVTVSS
VL: NIQMTQSPSSLTASVGDRITITCRASQGIRNSLAWYQQKPGTAPKLLVSAASKLQTGVPSRFSGSGSGTDYTLTISSLQTEDFATYYCQQYYGTPPTFGQGTKLEIKR
notes: also called P59380
B8: B201 (antibody, human IgG4, kappa, V domains shown)
VH: EVQLVESGGGLVQPGGSLRLSCAASGFTFSSYAMHWVRQAPGKGLEWVSAISGSGDSTYYADSVKGRFSISRDNSKNTLYLQMNSLRAEDTAVYYCAKGSRRSGFNLFDYWGQGTLVTVSS
VL: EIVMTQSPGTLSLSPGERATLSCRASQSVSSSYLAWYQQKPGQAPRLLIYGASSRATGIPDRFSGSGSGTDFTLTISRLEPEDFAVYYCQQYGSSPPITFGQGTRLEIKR
notes: also called P59398
B9: B307 (antibody, human IgG4, kappa, V domains shown)
VH: QLQLQESGPGLVKPSQTLSLTCTVSGGSISSGGYYWSWIRQHPGKGLEWIGYIYYSGSTYYNPSLKSRVTISVDTSKNQFSLKLSSVTAADTAVYYCARMGRIAASNYYGMDVWGQGTTVTVSS
VL: DIQLTQSPSFLSASVGDRVTITCRASQGISSQLAWYQQEPGKAPKLLIYAASTLQSGVPSRFSGSGSGTEFTLTISSLQPEDFATYYCQQVNAYPLTFGPGTKVDIKR
notes: also called P59399
B10: B83 (antibody, V domains shown)
VH: EVQLLESGGGLVQPGGSLRLSCAASGFTFSSYAMSWVRQAPGKGLEWVSAISGSGGRTYYADSVKGRFTISRDNSKNTLYLQMNSLRAEDTAVYYCARVLQYSGTDDLDVWGRGTLVTVSS
VL: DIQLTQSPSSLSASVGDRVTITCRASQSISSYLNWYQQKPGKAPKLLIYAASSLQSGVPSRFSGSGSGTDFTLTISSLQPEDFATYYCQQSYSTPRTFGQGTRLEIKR
notes: also called P59389
B11: B29 (antibody, human IgG4, kappa, V domains shown)
VH: QVQLVQSGAEVKKPGSSVKVSCKASGDTFSSFAISWVRQAPGQGLEWMGTIIPLFTTPNYAQKFQGRVTITADESTRTAYMELSSLRSEDTAVYYCARGPERIAAAGYYYYYGMDVWGQGTTVTVSS
VL: EIVMTQSPGTLSLSPGQRATLSCRASQSVSSSSLAWYQQKPGQAPRLLIHGASSRATGIPDRFSGSGSGTDFTLTISRLEPEDFAVYYCQQYGTSWTFGQGTKVEIKR
notes: also called P59385
B12: B24 (antibody, human IgG4, kappa, V domains shown)
VH: EVQLVETGGGLVKPGGSLRLSCAASGFTFSSYSMNWVRQAPGKGLEWVSSISSSSSYIYYADSVKGRFTISRDNAKNSLYLQMNSLRAEDTAVYYCARGRRRDFDYWGQGTLVTVSS
VL: DIQMTQSPSSLPASVGDRVTITCRASQGIGTFLAWYQQHLGKAPKLLISASSTVQRGVPSRFSGSGSGTEFTLTINSLQPEDFATYYCQQLNNYPRTFGQGTKVEIKR
notes: also called P59384
B13: B53 (antibody, human IgG4, kappa, V domains shown)
VH: EVQLVETGGGVVQPGRSLRLSCAASGFTFSSYAMHWVRQAPGKGLEWVAVISYDGSNKYYADSVKGRFTISRDNSKNTLYLQMNSLRAEDTAVYYCARNRYGATDYWGQGTLVTVSS
VL: NIQLTQSPSSLSASVGDRVTITCRASQGINSWLAWYQQKPGKAPKLLIYAASTLQSGVPSRFSGSGSGTDFTLTINSLQPEDFATYYCQQLNSFPFTFGPGTKVHIKR
notes: also called P59387
B14: B117 (antibody, human IgG4, kappa, V domains shown)
VH: EVQLLESGGGLVQPGGSLRLSCAASGFTFSSYSMNWVRQAPGKGLEWVSYISSSSSTIYYADSVKGRFTISRDNAKNSLYLQMNSLRDEDTAVYYCARDRTLGYWGQGTLVTVSS
VL: NIQLTQSPSSVSASVGDRVTISCRASQGIGRWLAWYQQKPGKAPKLLIYAASNLQSGVPSRFSGSGSGTDFTLTISSLQPEDFATYYCQQANSFPRTFGPGTKVDIKR
notes: also called P59394
B15: B20 (antibody, human IgG4, kappa, V domains shown)
VH: QVQLLESGPGLVKPSETLSLTCTVSGDSISNYFWSWIRQSPGKGLEWIGYIHYSGTVSYNPSLRSRVTISIDTSKNQFSLKLSSVTAADTAVYYCARRGRIAAAGTGYYYYGMDVWGQGTTVTVSS
VL: EIVMTQSPATLSLSPGERATLSCRASQSVSNYLAWYQQKPGQAPRLLIYGASSRATGIPDRFSGSGSGTDFTLTISRLEPEDFAVYYCQQYGSSLWTFGQGTKVEIKR
notes: also called P59383
B16: A67 (antibody, human IgG4, kappa, V domains shown)
VH: QVQLVQSGGGVVQPGRSLRLPCAASGFTFSNYAMHWVRQAPGKGLEWVAVISYDGSKKYYADSVKGRFTISRDNSKNTLYLQVNSLRAEDTAVYYCATGYSSPWYGMDVWGQGTTVTVSS
VL: NIQMTQSPSSLSASVGDRITITCRASQSVNSYVNWYQQTPGQAPKLLIYAASSVHNGVPVRFSGSRSGTEFILTISSLQPEDFVTYFCQQSFTSPWTFGQGTKLEMKR
notes: also called P59376
B17: A53 (antibody, human IgG4, kappa, V domains shown)
VH: EVQLLESGPGLVKPSQTLSLTCTVSGGSISSGGYYWSWIRQHPGKGLEWIGYIYYSGSTYYNPSLKSRVTISVDTSKNQFSLKLSSVTAADTAVYYCARDSRGRSYGMDVWGQGTMVTVSS
VL: DIQMTQSPSSLSASVGDRVTITCRASQSINNYLNWYQEKPGKAPKLLIYAASSLQSGVPSRFSGSGSGTDFTLTISSLQPEDFATYYCQQSYSYPFTFGPGTKVDIKR
notes: also called P59374
B18: B109 (antibody, human IgG4, kappa, V domains shown)
VH: EVQLLESGGGLVKPGGSLRLSCAASGFTFSSYSMNWVRQAPGKGLEWVSSISSSSSYIYYADSVKGRFTISRDNAKNSLYLQMNSLRDGDTAIYYCVRRLWEAPGIGPFDVWGHGTMVTVSS
VL: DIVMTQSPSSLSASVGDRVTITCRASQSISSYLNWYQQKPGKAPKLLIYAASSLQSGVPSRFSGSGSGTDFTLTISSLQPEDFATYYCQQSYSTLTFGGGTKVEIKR
notes: also called P59392
B19: B16 (antibody, human IgG4, kappa, V domains shown)
VH: QVQLVQSGGGLVQPGGSLRLSCAASGFTFSSYAMSWVRQAPGKGLEWVSAISGSGGSTYYADSVKGRFTISRDNPKNTLFLQMTSLRSEDTAMYYCARSYGNYFTYWGQGTLVTVSS
VL: EIVLTQSPATLSLSPGERATLSCRASQSVSSYLAWYQQKPGQAPRLLIYDASNRATGIPARFSGSGSGTDFTLTISSLEPEDFAVYYCQQRSNWPPELTFGGGTKVEIKR
notes: also called P59382
B20: A21 (antibody, human IgG4, kappa, V domains shown)
VH: EVHLVESGPELVRPGASVTLSCKASGYTFTDYEMHWVKQTPVHGLEWIGAIDPETGGTAYNQKFKGKATLTADKSSSTAYMELRSLTSEDSAVYYCTTTYGNYWYFDVWGAGTLVTVSS
VL: DIQLTQSPSSVSASVGDRVTITCRASQNIENWLAWYQQKPGKAPKLLIYATSRLENDVPSRFSGSRSGTEFILTISSLQPEDFATYYCHQANGFPWTFGPGTKVDIKR
notes: also called P59369
B21: A44 (antibody, human IgG4, kappa, V domains shown)
VH: QVQLQESGPGLVKPSQTLSLTCTVSGGSISSGGYYWSWIRQHPGKGLEWIGYIYYSGSTYYNPSLKSRVTISVDTSKNQFSLKLSSVTAADTAVYYCARWGRGGSSWRFDIWGQGTMVTVSS
VL: AIQMTQSPSSLSASVGDRVTITCRASQALTYTLAWYQQKPGKAPRLLIHDASSLESGVPSRFSGSGSGTDFTLTITSLQPEDFATYYCQQFRSYPLTFGGGTKVEIKR
notes: also called P59373
B22: A23 (antibody, human IgG4, kappa, V domains shown)
VH: QVQLVQSGAEVKKPGSSVKVSCKASGGTFSSYAISWVRQAPGQGLEWMGGIIPIFGTANYAQKFQGRVTITADESTSTAYMELSSLRSEDTAVYYCARGGGGRGMTSDWGQGTLVTVSS
VL: NIQLTQSPSSLSASVGDRVTITCRASQDISNYLAWFQQKPGKAPKSLIYAASSLQSGVPSRFSGSWSGTDFTLTISSLQPEDIATYYCQQYKRYPFIFGQGTKLEIKR
notes: also called P59371

The binders below were run against T1, CC1H, major antigenic region of PLA2R (human, UniProt Q13018 21-367) (assay: indirect ELISA, CC1h coated at 2 ug/mL, anti-human IgG Fc HRP).
T1 construct: Secreted from CHO-S cells, purified on Ni column; also called CCIh
Experimental: 30 μL of CC1h (2 μg/mL, diluted with 1*PBS) was added to the reaction wells of the ELISA plate, and the plate was sealed and incubated at 4° C. overnight. The plate was washed with PBST for 3 times, and the liquid in the wells was discarded. 5% PBSM was added to block the ELISA plate at room temperature for 2 hours. The plate was washed with PBST for 3 times by adding 30 μL of Abs (diluted with 1*PBS) to each well of the ELISA plate, and the plate was incubated at room temperature for 60 min. The plate was washed with PBST for 3 times, 30 μL of anti-human IgG Fc HRP (diluted with 1% PBSM at a ratio of 1:8000) was added to each well, and incubated at room temperature for 60 min. TMB was added and the reaction was stopped with 2M blocking solution and the OD value was detected at 450 nm. Recombinant Ipilimumab (Sanyou Biopharmaceuticals Co., Ltd.) was used as a negative control. The test results were illustrated in Table 2 as well as FIG. 4 and FIG. 5.
B1 was tested, and the EC50 was 5.02 ng/mL. With B2 the EC50 was 4.81 ng/mL. Binder B3 has an EC50 of 16 ng/mL. B4 showed an EC50 of 13.2 ng/mL. B5 showed an EC50 of 6.52 ng/mL. Binder B6 has an EC50 of 8.09 ng/mL. With B7 the EC50 was 14.1 ng/mL. B8 gave an EC50 of 8.88 ng/mL. Binder B9 has an EC50 of 5.74 ng/mL. B10 showed an EC50 of 7.71 ng/mL. B11 was tested, and the EC50 was 3.85 ng/mL. Work on B12 yielded an EC50 of 7.03 ng/mL. B13 was tested, and the EC50 was 7.67 ng/mL. With B14 the EC50 was 7.17 ng/mL. Work on B15 yielded an EC50 of 5.36 ng/mL. B16 was tested, and the EC50 was 6.41 ng/mL. For B17, the EC50 was 4.03 ng/mL. Binder B18 has an EC50 of 6.38 ng/mL. Work on B19 yielded an EC50 of 6.67 ng/mL. B20 was tested, and the EC50 was 8.49 ng/mL. For B21, the EC50 was 4.79 ng/mL. B22 was tested, and the EC50 was 27.6 ng/mL.
